Laboratory results as given in publication PMC6702328 (2019).

Key:
Assay in all cases: MST
human mutant SOD1^G93A = human mutant SOD1^G93A (human, fluorescently labeled (NanoTemper BLUE protein-labeling kit) where it was the labelled partner in MST)
Target sequence (chain, as listed by the source G93A): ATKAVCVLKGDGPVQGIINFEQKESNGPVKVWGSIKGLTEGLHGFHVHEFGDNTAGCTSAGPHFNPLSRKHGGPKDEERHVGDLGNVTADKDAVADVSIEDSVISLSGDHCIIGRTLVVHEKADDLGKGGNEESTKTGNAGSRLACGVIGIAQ

human mutant SOD1^G85R = human mutant SOD1^G85R (human, fluorescently labeled (NanoTemper BLUE protein-labeling kit) where it was the labelled partner in MST)
Target sequence (chain, as listed by the source G85R): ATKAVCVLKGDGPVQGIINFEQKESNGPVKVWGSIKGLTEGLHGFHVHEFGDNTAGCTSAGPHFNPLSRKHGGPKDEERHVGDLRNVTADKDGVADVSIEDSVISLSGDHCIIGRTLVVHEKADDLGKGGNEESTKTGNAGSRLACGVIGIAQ

[1] = molecular target: wild type human SOD1 (Cu/Zn superoxide dismutase) (human, UniProt P00441 1-154, fluorescently labeled (NanoTemper BLUE protein-labeling kit) where it was the labelled partner in MST)
wild type human SOD1 (Cu/Zn superoxide dismutase), sequence (P00441 whole entry): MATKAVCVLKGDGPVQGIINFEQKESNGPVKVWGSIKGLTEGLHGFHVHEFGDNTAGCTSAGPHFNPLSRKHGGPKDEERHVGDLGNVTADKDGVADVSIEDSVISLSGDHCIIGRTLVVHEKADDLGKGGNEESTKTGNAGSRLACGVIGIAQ

EC50 (human mutant SOD1^G93A): 3.75 µM
EC50 (human mutant SOD1^G85R): 3.75 µM
EC50 [1]: > 200 µM
Binder: MAVPPTYADLGKSARDVFTKGYGFGL [1-26 N-Terminal peptide of VDAC1]
